From US20130225488A1 (CADILA HEALTHCARE, published 2013)
Where no end group is shown, it is not given here. [ ]: non-standard residue; d: D form. αMePhe(2-F) = C[C@](N)(Cc1ccccc1F)C(=O)O; Ac3c = NC1(C(=O)O)CC1

Experiments:
Human glucagon receptor = Human glucagon receptor (human, UniProt P47871 26-477); test: cell-based or functional assay
Human GLP-1 receptor = Human GLP-1 receptor (human, UniProt P43220 24-463); test: cell-based or functional assay
Human GLP-1 receptor, sequence (P43220 24-463): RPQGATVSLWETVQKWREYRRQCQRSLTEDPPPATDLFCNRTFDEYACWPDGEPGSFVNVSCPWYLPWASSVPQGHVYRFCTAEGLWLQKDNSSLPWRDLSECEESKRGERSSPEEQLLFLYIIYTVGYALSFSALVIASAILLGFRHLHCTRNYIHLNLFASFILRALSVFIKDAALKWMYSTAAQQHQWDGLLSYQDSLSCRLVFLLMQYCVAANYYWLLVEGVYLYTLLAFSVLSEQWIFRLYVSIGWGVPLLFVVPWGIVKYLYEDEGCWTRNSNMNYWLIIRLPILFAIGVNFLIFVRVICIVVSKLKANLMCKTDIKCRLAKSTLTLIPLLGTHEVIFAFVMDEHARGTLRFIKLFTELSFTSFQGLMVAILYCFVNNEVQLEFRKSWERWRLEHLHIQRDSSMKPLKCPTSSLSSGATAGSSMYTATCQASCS

Binder	cAMP production with saturated glucagon peptide; test compound 1 nM (Human glucagon receptor)	cAMP production with saturated glucagon peptide; test compound 10 nM (Human glucagon receptor)	cAMP production with saturated glucagon peptide; test compound 100 nM (Human glucagon receptor)	cAMP production with saturated glucagon peptide; test compound 10 µM (Human glucagon receptor)	cAMP production with saturated glucagon peptide; test compound '1 nM' (Human glucagon receptor)	cAMP release, % activity with respect to control; test compound 1 nM (Human GLP-1 receptor)	cAMP release, % activity with respect to control; test compound 10 nM (Human GLP-1 receptor)	cAMP release, % activity with respect to control; test compound 100 nM (Human GLP-1 receptor)	cAMP release, % activity with respect to control; test compound 1 µM (Human GLP-1 receptor)	cAMP release, % activity with respect to control; test compound 10 µM (Human GLP-1 receptor)
HAQGTFTSD[Bip(OMe)][Bip(Pyr)] [Seq. ID. No. 10: HAQGTFTSD-Bip(OMe)-Bip(Pyr)]	15 pmol/ml/µg prt	12 pmol/ml/µg prt	8 pmol/ml/µg prt	2 pmol/ml/µg prt	4 pmol/ml/µg prt					
HAQGT[αMePhe(2-F)]TSD[Bip(OMe)][Bip(2F)] [Seq. ID. No. 27: HAQGT-(α-Me-2F-Phe)-TSD-Bip(OMe)-Bip(2F)]	14 pmol/ml/µg prt	11 pmol/ml/µg prt	7 pmol/ml/µg prt	0 pmol/ml/µg prt	3 pmol/ml/µg prt	82%	87%	92%	99%	99%
H[Ac3c]QGTFTSD[Bip(OMe)][Bip(2CF3)] (not fully specified) [Seq. ID. No. 20: H-(ACP)-QGTFTSD-Bip(OMe)-Bip(2CF3)]	5 pmol/ml/µg prt	2 pmol/ml/µg prt	0 pmol/ml/µg prt	0 pmol/ml/µg prt	0 pmol/ml/µg prt					
HAQGT[αMePhe(2-F)]TSD[Bip(OMe)][Bip(2CF3)] [Seq. ID. No. 28: HAQGT-(α-Me-2F-Phe)-TSD-Bip(OMe)-Bip(2CF3)]	4 pmol/ml/µg prt	3 pmol/ml/µg prt	0 pmol/ml/µg prt	0 pmol/ml/µg prt	0 pmol/ml/µg prt	55%	88%	92%	99%	99%
HSQGTXTSDXX (α-Me-2F-Phe at 6; Bip(OMe) at 10; Bip(2CF3) at 11) [Seq. ID. No. 24: HSQGT-(α-Me-2F-Phe)-TSD-Bip(OMe)-Bip(2CF3)]	4 pmol/ml/µg prt	2 pmol/ml/µg prt	0 pmol/ml/µg prt	0 pmol/ml/µg prt	0 pmol/ml/µg prt	41%	82%	87%	95%	98%
HAQGTFTSD[Bip(OMe)][Bip(2CF3)] [Seq. ID. No. 12: HAQGTFTSD-Bip(OMe)-Bip(2CF3)]	5 pmol/ml/µg prt	3 pmol/ml/µg prt	0 pmol/ml/µg prt	0 pmol/ml/µg prt	0 pmol/ml/µg prt					
HAQGT[αMePhe(2-F)]TSD[Bip(OMe)][Bip(Pyr)] [Seq. ID. No. 26: HAQGT-(α-Me-2F-Phe)-TSD-Bip(OMe)-Bip(Pyr)]	15 pmol/ml/µg prt	12 pmol/ml/µg prt	8 pmol/ml/µg prt	2 pmol/ml/µg prt	4 pmol/ml/µg prt					
HXQGTXTSDXX (not fully specified; ACP at 2; α-Me-2F-Phe at 6; Bip(OMe) at 10; Bip(2CF3) at 11) [Seq. ID. No. 36: H-(ACP)-QGT-(α-Me-2F-Phe)-TSD-Bip(OMe)-Bip(2CF3)]	3 pmol/ml/µg prt	1 pmol/ml/µg prt	0 pmol/ml/µg prt	0 pmol/ml/µg prt	0 pmol/ml/µg prt					
H[Ac3c]QGTFTSD[Bip(OMe)][Bip(2F)] [Seq. ID. No. 19: H-(ACP)-QGTFTSD-Bip(OMe)-Bip(2F)]	5 pmol/ml/µg prt	3 pmol/ml/µg prt	1 pmol/ml/µg prt	0 pmol/ml/µg prt	0 pmol/ml/µg prt					
HSQGTXTSDXX (α-Me-2F-Phe at 6; Bip(OMe) at 10; Bip(2Me) at 11) [Seq. ID. No. 21: HSQGT-(α-Me-2F-Phe)-TSD-Bip(OMe)-Bip(2Me)]	19 pmol/ml/µg prt	17 pmol/ml/µg prt	15 pmol/ml/µg prt	12 pmol/ml/µg prt	14 pmol/ml/µg prt	39%	80%	86%	95%	98%
HSQGTXTSDXX (α-Me-2F-Phe at 6; Bip(OMe) at 10; Bip(Pyr) at 11) [Seq. ID. No. 22: HSQGT-(α-Me-2F-Phe)-TSD-Bip(OMe)-Bip(Pyr)]	21 pmol/ml/µg prt	19 pmol/ml/µg prt	18 pmol/ml/µg prt	16 pmol/ml/µg prt	18 pmol/ml/µg prt					
HSQGTXTSDXX (α-Me-2F-Phe at 6; Bip(OMe) at 10; Bip(2F) at 11) [Seq. ID. No. 23: HSQGT-(α-Me-2F-Phe)-TSD-Bip(OMe)-Bip(2F)]	4 pmol/ml/µg prt	2 pmol/ml/µg prt	2 pmol/ml/µg prt	0 pmol/ml/µg prt	0 pmol/ml/µg prt	46%	85%	90%	99%	99%
HSQGTFTSD[Bip(OMe)][Bip(Pyr)] (not fully specified (C-terminus); printed as HSQGTFTSD-Bip(OMe)-Bip(Pyr)) [Seq. ID. No. 6: HSQGTFTSD-Bip(OMe)-Bip(Pyr)]						39%	80%	88%	96%	99%
HAQGT[αMePhe(2-F)]TSD[Bip(OMe)][Bip(2Me)] [Seq. ID. No. 25: HAQGT-(α-Me-2F-Phe)-TSD-Bip(OMe)-Bip(2Me)]	18 pmol/ml/µg prt	16 pmol/ml/µg prt	12 pmol/ml/µg prt	6 pmol/ml/µg prt	8 pmol/ml/µg prt	38%	77%	85%	94%	97%
